Molecular target: SARS-COV-2野生型毒株Spike蛋白的RBD (SARS-COV-2野生型毒株, UniProt P0DTC2 319-541)
Experiment: BLI (Octet), antibody captured on Protein A probes, RBD at 15 nM and 60 nM in solution

B1: HUR33变体 (antibody, human IgG1, kappa, V domains shown)
VH: QVQLVQSGSELKKPGASVKVSCKASGYTFTDYGMNWVRQAPGQGLEWMGWINTYSGEPTYADDFRGRFVFSLDTSVSTAYLQISSLKAEDTAVYYCARGGNWDWYFDVWGQGTLVTVSS
VL: DIQMTQSPSSLSASVGDRVTITCRASQSVSNFLHWYQQKPGKAPKLLIYYASQSISGVPSRFSGSGSGTDFTLTISSLQPEDFATYYCQQSNTWPLTFGQGTKLEIKR
notes: also called HUR33-1; HUR33 variant
  binding result: binds

From patent CN117643628A (SHANGHAI JUNSHI BIOSCIENCES CO LTD; JUNMENG BIOSCIENCES CO …, dated 2024)
